# Reference: paper PMC4357238, “Catalytic surface radical in dye-decolorizing peroxidase: a computational, spectroscopic and site-directed mutagenesis study” (Biochemical Journal, 2015)
# Key:
# Assay type in all cases: biochemical, Auricularia auricula-judae
# [1] = substrate: Nc1c(N=Nc2ccc(S(=O)(=O)CCOS(=O)(=O)O)cc2)c(S(=O)(=O)O)cc2cc(S(=O)(=O)O)c(N=Nc3ccc(S(=O)(=O)CCOS(=O)(=O)O)cc3)c(O)c12; assay: steady-state kinetics, absorbance decrease, Michaelis-Menten fit; conditions: single set of constants, 0.1 mM H2O2, 10 nM enzyme, 0.1 M tartrate pH 3, 25°C, pH 3.0
# Excerpt: (§1) steady-state kinetics, absorbance decrease, Michaelis-Menten fit on DyP (dye-decolorizing peroxidase; mature DyP-I) of Auricularia auricula-judae
# [2] = substrate: Nc1c(S(=O)(=O)O)cc(Nc2cccc(S(=O)(=O)CCOS(=O)(=O)O)c2)c2c1C(=O)c1ccccc1C2=O; assay: as above; conditions: 0.1 mM H2O2, 10 nM enzyme, 0.1 M tartrate pH 3.5, 25°C
# Excerpt: as §1
# [3] = substrate: CCn1c(=NN=c2sc3cc(S(=O)(=O)O)ccc3n2CC)sc2cc(S(=O)(=O)O)ccc21; assay: steady-state kinetics, absorbance increase, Michaelis-Menten fit; conditions: 0.1 mM H2O2, 10 nM enzyme, 0.1 M tartrate pH 3, 25°C
# Excerpt: (§2) steady-state kinetics, absorbance increase, Michaelis-Menten fit on DyP (dye-decolorizing peroxidase; mature DyP-I) of Auricularia auricula-judae
# [4] = substrate: COc1cccc(OC)c1O; assay: as above; conditions: 0.1 mM H2O2, 10 nM enzyme, 0.1 M tartrate pH 3, 25°C
# Excerpt: as §2
# [5] = substrate: COc1ccc(CO)cc1OC; assay: as above; conditions: single set of constants, 0.1 mM H2O2, 100 nM enzyme, 0.1 M tartrate pH 2.5, 25°C, pH 2.5
# Excerpt: as §2
# [6] = single set (high-turnover site, haem channel blocked), pH 3.5
# [7] = single set (high-turnover site)
# [8] = two-site kinetics: high-affinity low-turnover site
# [9] = two-site kinetics: high-affinity low-turnover site, pH 3.5
# [10] = single set (low-turnover site), pH 3.5
# [11] = two-site kinetics: high-affinity low-turnover site, pH 3.0
# [12] = single set (low-turnover site), pH 3.0
protein,measurement,setting,value
"DyP (dye-decolorizing peroxidase; mature DyP-I) of Auricularia auricula-judae (Auricularia auricula-judae; G230L) (protein, variants made on the same plasmid) ATSLNTDDIQGDILVGMHKQKQLFYFFAINDPATFKTHLASDIAPVVASVTQLSNVATQPLVALNIAFSNTGLLALGVTDNLGDSLFANGQAKDATSFKESTSSWVPQFAGTGIHGVIILASDTTDLIDQQVASIESTFGSSISKLYSLSASIRPGNEAGHEMFGFLDLIAQPAINGFNTPLPGQNIVDAGVIITGATNDPITRPSWAVGGSFLAFRQLEQLVPEFNKYLLDNAPAGSGSLQARADLLGARMVGRWKSGAPIDLTPTADDPALGADAQRNNNFTYSHAGFDLGSDQSHCPFSAHIRKTRPRADLGGSLTPPNLSAGANSIMRSGIPYGPEVTSAESASNTTTQERGLAFVAYQAQLSQGFHFLQQTWADNANFPPGKTPATVGLDPIIGQNNGQPRVVNGLLPSNSSASLSIPQFVVSHGGEYFFSPPISAIGGRLSA",Km,[1],5.8 ± 0.6 µM
same,kcat,[1],1.2 ± 0.1 s⁻¹
same,kcat/Km,[1],217000 ± 13000 M⁻¹ s⁻¹
same,Km,[2]; [6],10 ± 3 µM
same,kcat,[2]; [6],106 ± 9 s⁻¹
same,kcat/Km,[2]; [6],1.24e+07 ± 3e+06 M⁻¹ s⁻¹
same,Km,[3]; [7],25 ± 2 µM
same,kcat,[3]; [7],96 ± 2 s⁻¹
same,kcat/Km,[3]; [7],3.77e+06 ± 270000 M⁻¹ s⁻¹
same,Km,[4]; [8],6.0 ± 0.4 µM
same,kcat,[4]; [8],9.9 ± 0.2 s⁻¹
same,kcat/Km,[4]; [8],1.6e+06 ± 70000 M⁻¹ s⁻¹
"DyP (dye-decolorizing peroxidase; mature DyP-I) of Auricularia auricula-judae (Auricularia auricula-judae) (protein, variants made on the same plasmid) ATSLNTDDIQGDILVGMHKQKQLFYFFAINDPATFKTHLASDIAPVVASVTQLSNVATQPLVALNIAFSNTGLLALGVTDNLGDSLFANGQAKDATSFKESTSSWVPQFAGTGIHGVIILASDTTDLIDQQVASIESTFGSSISKLYSLSASIRPGNEAGHEMFGFLDGIAQPAINGFNTPLPGQNIVDAGVIITGATNDPITRPSWAVGGSFLAFRQLEQLVPEFNKYLLDNAPAGSGSLQARADLLGARMVGRWKSGAPIDLTPTADDPALGADAQRNNNFTYSHAGFDLGSDQSHCPFSAHIRKTRPRADLGGSLTPPNLSAGANSIMRSGIPYGPEVTSAESASNTTTQERGLAFVAYQAQLSQGFHFLQQTWADNANFPPGKTPATVGLDPIIGQNNGQPRVVNGLLPSNSSASLSIPQFVVSHGGEYFFSPPISAIGGRLSA",Km,[1],15.6 ± 2.0 µM
same,kcat,[1],4.8 ± 0.2 s⁻¹
same,kcat/Km,[1],310000 ± 20000 M⁻¹ s⁻¹
same,Km,[2]; [9],14.0 ± 2.0 µM
same,kcat,[2]; [9],32.0 ± 3.0 s⁻¹
same,kcat/Km,[2]; [9],2.23e+06 ± 200000 M⁻¹ s⁻¹
same,Km,[3]; [8],3.1 ± 1.1 µM
same,kcat,[3]; [8],7.4 ± 1.4 s⁻¹
same,kcat/Km,[3]; [8],2.37e+06 ± 420000 M⁻¹ s⁻¹
same,Km,[4]; [8],6.0 ± 0.5 µM
same,kcat,[4]; [8],8.0 ± 0.2 s⁻¹
same,kcat/Km,[4]; [8],1.35e+06 ± 100000 M⁻¹ s⁻¹
"DyP (dye-decolorizing peroxidase; mature DyP-I) of Auricularia auricula-judae (Auricularia auricula-judae; Y398S) (protein, variants made on the same plasmid) ATSLNTDDIQGDILVGMHKQKQLFYFFAINDPATFKTHLASDIAPVVASVTQLSNVATQPLVALNIAFSNTGLLALGVTDNLGDSLFANGQAKDATSFKESTSSWVPQFAGTGIHGVIILASDTTDLIDQQVASIESTFGSSISKLYSLSASIRPGNEAGHEMFGFLDGIAQPAINGFNTPLPGQNIVDAGVIITGATNDPITRPSWAVGGSFLAFRQLEQLVPEFNKYLLDNAPAGSGSLQARADLLGARMVGRWKSGAPIDLTPTADDPALGADAQRNNNFTYSHAGFDLGSDQSHCPFSAHIRKTRPRADLGGSLTPPNLSAGANSIMRSGIPSGPEVTSAESASNTTTQERGLAFVAYQAQLSQGFHFLQQTWADNANFPPGKTPATVGLDPIIGQNNGQPRVVNGLLPSNSSASLSIPQFVVSHGGEYFFSPPISAIGGRLSA",Km,[2]; [8],7.4 ± 2.3 µM
same,kcat,[2]; [8],26.0 ± 1.9 s⁻¹
same,kcat/Km,[2]; [8],3.37e+06 ± 350000 M⁻¹ s⁻¹
"DyP (dye-decolorizing peroxidase; mature DyP-I) of Auricularia auricula-judae (Auricularia auricula-judae; W438S) (protein, variants made on the same plasmid) ATSLNTDDIQGDILVGMHKQKQLFYFFAINDPATFKTHLASDIAPVVASVTQLSNVATQPLVALNIAFSNTGLLALGVTDNLGDSLFANGQAKDATSFKESTSSWVPQFAGTGIHGVIILASDTTDLIDQQVASIESTFGSSISKLYSLSASIRPGNEAGHEMFGFLDGIAQPAINGFNTPLPGQNIVDAGVIITGATNDPITRPSWAVGGSFLAFRQLEQLVPEFNKYLLDNAPAGSGSLQARADLLGARMVGRWKSGAPIDLTPTADDPALGADAQRNNNFTYSHAGFDLGSDQSHCPFSAHIRKTRPRADLGGSLTPPNLSAGANSIMRSGIPYGPEVTSAESASNTTTQERGLAFVAYQAQLSQGFHFLQQTSADNANFPPGKTPATVGLDPIIGQNNGQPRVVNGLLPSNSSASLSIPQFVVSHGGEYFFSPPISAIGGRLSA",Km,[1],10.6 ± 1.0 µM
same,kcat,[1],0.70 ± 0.02 s⁻¹
same,kcat/Km,[1],68000 ± 4000 M⁻¹ s⁻¹
same,Km,[2]; [10],3.9 ± 0.6 µM
same,kcat,[2]; [10],8.9 ± 0.6 s⁻¹
same,kcat/Km,[2]; [10],2.24e+06 ± 240000 M⁻¹ s⁻¹
same,Km,[3]; [11],30.0 ± 0.5 µM
same,kcat,[3]; [11],14.0 ± 1.0 s⁻¹
same,kcat/Km,[3]; [11],472000 ± 61000 M⁻¹ s⁻¹
same,Km,[5],7360 ± 1270 µM
same,kcat,[5],0.23 ± 0.01 s⁻¹
same,kcat/Km,[5],32 ± 3 M⁻¹ s⁻¹
same,Km,[4]; [12],3560 ± 250 µM
same,kcat,[4]; [12],6.4 ± 0.1 s⁻¹
same,kcat/Km,[4]; [12],1800 ± 100 M⁻¹ s⁻¹
